# Test results taken from US20030148264A1, “Phage displayed PDZ domain ligands” (GENENTECH, INC., priority 2001, published 2003).
# T1: PDZ 2 of MAGI-3 (Homo sapiens, UniProt Q5TCQ9)
# T1 construct: made in house; host or cells: E. coli
# T1 sequence (Q5TCQ9 584-707 isoform Q5TCQ9-2): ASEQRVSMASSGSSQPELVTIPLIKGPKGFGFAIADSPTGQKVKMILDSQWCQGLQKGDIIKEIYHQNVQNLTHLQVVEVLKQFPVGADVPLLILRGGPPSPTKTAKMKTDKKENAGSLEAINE
# Experiments:
# [1] = biological target: T1, PDZ 2 of MAGI-3; experiment: GST-PDZ co-precipitation of proteins from transfected HEK 293 cell extracts; assay type: binding; conditions: extracts from transfected HEK 293 cells; FIG. 6
# Experimental: (§1) HEK 293 (293) cells grown in high glucose Dulbeco's Modified Eagle Medium (DMEM), 10% fetal calf serum, 1× non-essential amino acid supplement, 1×L-glutamine supplement, 10 mM HEPES (pH 7.4) and penicillin/streptomycin (all from Life Technologies) to ˜80% confluence were transfected with 2 μg DNA/35 mm diameter well (for example, DNAs encoding the sequences described in EXAMPLE 5.0) using Fugene reagent (Roche Biochemical). 24 hours post-transfection, cells were washed once with PBS and then scraped into 1 ml/well of 20 mM Tris (pH 7.5), 1% Triton X-100, 200 mM NaCl, 1 mM dithiothreitol, and protease inhibitor cocktail with EDTA (Roche Biochemical, catalog #1836145) and homogenized gently with three to five strokes in a dounce (Wheaton) using a loose glass pestle. Extracts were centrifuged at 12,000 rpm in a tabletop centrifuge at 4° C. for 10 minutes; the supernatant was combined with an equal volume of homogenization buffer without NaCl to achieve a final salt concentration of 100 mM and frozen at −70° C. until use. […] Binding of 293 cell-expressed proteins was detected by immunoblot analysis using antibodies against GFP (Clontech) and Her 2 (Santa Cruz Biotechnology).
# (§2) Amino acids 1217-1371 of ERBIN and 584-707 corresponding to PDZ 2 of MAGI-3 (Sidhu et al., 2000); were expressed in E. coli as GST fusions. […] Equal volumes of extract and depleted extract (sup.) were analyzed.
# [2] = biological target: T2, ERBIN PDZ domain (Homo sapiens, UniProt Q96RT1); experiment: as above; assay type: binding; parameters: made in house; host or cells: E. coli; conditions: extracts from transfected HEK 293 cells; FIG. 6
# Experimental: as §1, §2
# Target sequence in this assay (Q96RT1 1258-1412): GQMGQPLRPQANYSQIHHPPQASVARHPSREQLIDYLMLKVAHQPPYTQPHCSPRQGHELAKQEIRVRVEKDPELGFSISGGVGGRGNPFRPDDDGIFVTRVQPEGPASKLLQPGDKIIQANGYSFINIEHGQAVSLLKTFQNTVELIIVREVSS
# [3] = biological target: T2, ERBIN PDZ domain; experiment: Co-localization of ERBIN PDZ and δ-catenin in transfected HEK 293 cells; assay type: cell-based; parameters: expressed in transfected cells; host or cells: HEK 293; conditions: co-transfected HEK 293 cells; FIG. 7
# Experimental: HEK 293 cells were grown to 70% confluence on collagen IV coated coverslips and then transfected with 1.4 μg of GST-ERBIN PDZ in pcDNA 3.1/V5/His and 1.1 μg of the indicated EGFP construct. 24 to 48 hours post-transfection, the cells were washed in PBS, fixed for 30 minutes in 2.5% formaldehyde, permeabilized with 0.25% Triton X-100 in PBS, and blocked with 5% donkey serum in PBS. The ERBIN PDZ domain was visualized by staining with monoclonal anti-V5 antibody (Invitrogen) and Cy3-conjugated secondary antibodies (Jackson Immunolabs) whereas GFP fusions were visualized directly. Images were taken on a standard fluorescence microscope using a 40× objective and digital CCD camera and SPOT imaging software (Diagnostic Instruments, Inc.; Sterling Heights, Mich.).
# The ERBIN PDZ domain was co-transfected into HEK 293 E cells with EGFP, human δ-catenin or human δ-catenin missing the six C-terminal amino acids (FIG. 7).
# Target sequence in this assay (Q96RT1 1314-1412): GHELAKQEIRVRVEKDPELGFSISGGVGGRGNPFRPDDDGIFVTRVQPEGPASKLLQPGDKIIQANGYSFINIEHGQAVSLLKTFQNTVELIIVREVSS
molecule,measurement,setting,value
"δ-catenin: member of the Armadillo family, expressed as EGFP fusion in HEK 293 cells; candidate ERBIN PDZ ligand (protein, left off: large carriers, member of the Armadillo family, expressed as EGFP fusion in HEK 293 cells; candidate ERBIN PDZ ligand) MFARKPPGAAPLGAMPVPDQPSSASEKTSSLSPGLNTSNGDGSETETTSAILASVKEQELQFERLTRELEAERQIVASQLERCKLGSETGSMSSMSSAEEQFQWQSQDGQKDIEDELTTGLELVDSCIRSLQESGILDPQDYSTGERPSLLSQSALQLNSKPEGSFQYPASYHSNQTLALGETTPSQLPARGTQARATGQSFSQGTTSRAGHLAGPEPAPPPPPPPREPFAPSLGSAFHLPDAPPAAAAAALYYSSSTLPAPPRGGSPLAAPQGGSPTKLQRGGSAPEGATYAAPRGSSPKQSPSRLAKSYSTSSPINIVVSSAGLSPIRVTSPPTVQSTISSSPIHQLSSTIGTYATLSPTKRLVHASEQYSKHSQELYATATLQRPGSLAAGSRASYSSQHGHLGPELRALQSPEHHIDPIYEDRVYQKPPMRSLSQSQGDPLPPAHTGTYRTSTAPSSPGVDSVPLQRTGSQHGPQNAAAATFQRASYAAGPASNYADPYRQLQYCPSVESPYSKSGPALPPEGTLARSPSIDSIQKDPREFGWRDPELPEVIQMLQHQFPSVQSNAAAYLQHLCFGDNKIKAEIRRQGGIQLLVDLLDHRMTEVHRSACGALRNLVYGKANDDNKIALKNCGGIPALVRLLRKTTDLEIRELVTGVLWNLSSCDALKMPIIQDALAVLTNAVIIPHSGWENSPLQDDRKIQLHSSQVLRNATGCLRNVSSAGEEARRRMRECDGLTDALLYVIQSALGSSEIDSKTVENCVCILRNLSYRLAAETSQGQHMGTDELDGLLCGEANGKDAESSGCWGKKKKKKKSQDQWDGVGPLPDCAEPPKGIQMLWHPSIVKPYLTLLSECSNPDTLEGAAGALQNLAAGSWKWSVYIRAAVRKEKGLPILVELLRIDNDRVVCAVATALRNMALDVRNKELIGKYAMRDLVHRLPGGNNSNNTASKAMSDDTVTAVCCTLHEVITKNMENAKALRDAGGIEKLVGISKSKGDKHSPKVVKAASQVLNSMWQYRDLRSLYKKDGWSQYHFVASSSTIERDRQRPYSSSRTPSISPVRVSPNNRSASAPASPREMISLKERKTDYECTGSNATYHGAKGEHTSRKDAMTAQNTGISTLYRNSYGAPAEDIKHNQVSAQPVPQEPSRKDYETYQPFQNSTRNYDESFFEDQVHHRPPASEYTMHLGLKSTGNYVDFYSAARPYSELNYETSHYPASPDSWV",binding to / precipitation by GST-MAGI-3 PDZ 2,[1],not to PDZ 2 of MAGI-3
same,binding to / precipitation by GST-ERBIN PDZ,[2],binds strongly
same,co-localization with / recruitment of ERBIN PDZ domain,[3],complete recruitment of ERBIN PDZ to the cell junction
